# Measurements taken from patent US20160369001A1 (JCR PHARMACEUTICALS, published 2016).
# Biological target: T1, recombinant human TfR (rhTfR) (Sino Biological) (human, UniProt P02786 89-760)
# T1 construct: Bought protein, coated on 96-well plates at 5 ug/mL; also called human transferrin receptor
# Test: ELISA, rhTfR coated on plate, MBP-scFv lysate supernatant, HRP-labelled anti-MBP detection, A450
# Procedure: E. coli (JM109) was transformed respectively with the mouse and human single-chain anti-hTfR antibody cDNA libraries, and then disseminated on LB plates containing ampicillin (Amp), and cultured overnight at 37° C. On the following day, the colonies formed on the plates were collected one by one, with which Overnight Express™ Instant LB Medium (Novagen), which had been dispensed beforehand to 96-well plates, was inoculated. After the plates were shaken overnight at 37° C., a tenth amount of Popculture Reagent (Novagen) was added to lyse the cells, and following addition of an equal amount of TBS-T, the resulting mixture was centrifuged to collect the supernatant. This supernatant was used as a sample solution.
# To each well of the 96-well plates was added 5 μg/mL of recombinant human TfR (rhTfR) (Sino Biological) or 50 μL of bovine gamma globulin (Bio-Rad, Inc.), and the plates were left undisturbed at 4° C. overnight. After removal of the solution, each well was washed once with 300 μL of TBS-T. Then, to each well was added 300 μL of 1% BSA solution, and the plates were left undisturbed for 30 minutes at room temperature. After removal of the solution, 100 μL of the above sample solution was added to each well, and the plates were left undisturbed for two hours at room temperature. After removal of the solution, each well was washed three times with 300 μL of TBS-T, and 50 μL of HRP-labelled anti MBP antibody (Novagen) was added, and the plates were left undisturbed for one hour at room temperature. After removal of the solution, each well was washed three times with 300 μL of TBS-T, then 50 μL of POD substrate solution (Nacalai Tesque, Inc.) was added, and a reaction was allowed to proceed for 10-15 minutes at room temperature. […] Three clones, M11, M23 and M27 were obtained as high affinity clones to rhTfR from the mouse single-chain anti-hTfR antibody cDNA library. A clone (B84) was obtained as a high affinity clone to rhTfR from the human single-chain anti-hTfR antibody cDNA library.
# T1 sequence (P02786 89-760 limits assumed): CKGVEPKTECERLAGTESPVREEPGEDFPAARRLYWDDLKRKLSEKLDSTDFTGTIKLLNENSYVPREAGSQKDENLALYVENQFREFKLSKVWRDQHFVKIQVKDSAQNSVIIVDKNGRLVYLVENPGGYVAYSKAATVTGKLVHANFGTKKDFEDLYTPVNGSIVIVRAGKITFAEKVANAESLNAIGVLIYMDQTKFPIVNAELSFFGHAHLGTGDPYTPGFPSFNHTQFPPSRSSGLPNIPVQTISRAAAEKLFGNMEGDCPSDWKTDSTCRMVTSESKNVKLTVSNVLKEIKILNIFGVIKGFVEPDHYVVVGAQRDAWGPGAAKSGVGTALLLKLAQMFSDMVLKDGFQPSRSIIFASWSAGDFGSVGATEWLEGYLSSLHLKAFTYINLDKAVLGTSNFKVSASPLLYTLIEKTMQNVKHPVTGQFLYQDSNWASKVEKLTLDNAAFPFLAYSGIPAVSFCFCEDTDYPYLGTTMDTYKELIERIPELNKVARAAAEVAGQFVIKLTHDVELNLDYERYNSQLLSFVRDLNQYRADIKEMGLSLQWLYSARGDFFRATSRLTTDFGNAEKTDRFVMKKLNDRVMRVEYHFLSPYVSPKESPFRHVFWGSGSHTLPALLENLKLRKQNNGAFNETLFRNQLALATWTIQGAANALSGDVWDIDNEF
row,binding result,Binder
1,binds,"mouse single-chain anti-hTfR antibody of Clone M11 (maltose binding protein fusion, E. coli lysate supernatant) (scFv, not shown: large carriers, Tested in the screening ELISA as an MBP fusion in crude E. coli lysate supernatant and detected with an HRP-labelled anti-MBP antibody; The scFv is light chain, linker, heavy chain) scFv: DYKDIVMTQSHKFMSTSVGDRVSITCKASQDVGTAVAWYQQKPGQSPKLLIYWASTRHTGVPDRFTGSGSGTDFTLTISNVQSEDLADYFCQQYSSYLTFGAGTKLELKRGGGGSGGGGSGGGGSGGGGSEVMLVESGGDLVKPGGSLKLSCAASGFTFSSYGMSWVRQTPDKRLEWVATISSGGSYTYYPDSVKGRFTISRDNAKNTLYLQMSSLKSEDTAMYYCALLRSDWYFDVWGAGTTVTVSS"
2,binds,"mouse single-chain anti-hTfR antibody of Clone M27 (maltose binding protein fusion, E. coli lysate supernatant) (scFv, not shown: large carriers, Tested in the screening ELISA as an MBP fusion in crude E. coli lysate supernatant; also called Clone 27) scFv: DYKDIVMTQSHKFMSTSVGDRVSITCKASQDVGTAVAWYQQKPGQSPKLLIYWASTRHTGVPDRFTGSGSGTDFTLTISNVQSEDLADYFCQQYSSYPYTFGGGTKLEIKRGGGGSGGGGSGGGGSGGGGSQVQLQQPGSELVRPGASVKLSCKASGYTFTSYWMHWVKQRPGQGLEWIGNIYPGSGSTNYDEKFKSKATLTVDTSSSTAYMQLSSLTSEDSAVYYCTRGATALDYWGQGTTLTVSS"
3,binds,"mouse single-chain anti-hTfR antibody of Clone M23 (maltose binding protein fusion, E. coli lysate supernatant) (scFv, not shown: large carriers, Tested in the screening ELISA as an MBP fusion in crude E. coli lysate supernatant and detected with an HRP-labelled anti-MBP antibody) scFv: DYKDIVITQSHKFMSTSVGDRVSITCKASQDVSTAVAWYQQKPGQSPKLLIYSASYRYTGVPDRFTGSGSGTDFTFTISSVQAEDLAVYYCQQHYSTPYTFGGGTKLEIKRGGGGSGGGGSGGGGSGGGGSQVQLQQSGAELVRPGASVTLSCKASGYTFTDYEMHWVKQTPVHGLEWIGAIDPETGGTAYNQKFKGKATLTADKSSSTAYMELRSLTSEDSAVYYCTGWGFDYWGQGTTLTVSS"
